Experimental data as given in publication PMC5828221.

Molecular target: purified recombinant histone H3 protein (Active Motif C110A), PARylated in vitro by PARP1 (UniProt P68431)

## human EZH2/EED/SUZ12/RbAp48/AEBP2 Complex (from UniProt Q15910 1-746; O75530 1-441; Q15022 1-739; Q09028 1-425; Q6ZN18 1-517)
  decrease in H3K27me3 ELISA after in vitro methylation by the EZH2/PRC2 complex of PARylated against unmodified recombinant histone H3 (PARP1 removed beforehand): 30%
